Key:
Assay type in all cases: cell-based, human
LNCaP cells = assay: Growth in steroid-reduced medium with DHT and/or bicalutamide; conditions: ebp1 transfectants (vector controls approximately 70%)
Experimental: Cell Growth Assays: To measure growth in complete media, cells (2×10^4) were seeded in triplicate in individual wells of 12-well tissue culture plates in RPMI-1640 with 10% FBS and cultured for the indicated number of days. Cells were trypsinized, stained with Trypan Blue (0.4%), and counted in a hemacytometer. […] Colonies were counted after 10 days of incubation. For studies assessing the effect of dihydrotestosterone (DHT) on cell growth, cells (2×10^4) were plated in 12-well plates in complete media. After a 24-hour attachment period, the medium was replaced with steroid-free medium [phenol red-free RPMI 1640 and 5% charcoal-stripped FBS (Sigma)] for 48 hours. The final concentration of testosterone in the steroid-reduced media was less than 5 pM. After 48 hours of steroid depletion, cells were re-fed with fresh steroid-reduced medium with or without the indicated concentrations of DHT and/or bicalutamide (10 μM), and total cell numbers were assessed 7 days later.

[1] = tested on: AR and POV-1 protein in LNCaP cells; assay: Western blot analysis of LNCaP ebp1 transfectants
Experimental: Western Blot Analysis: Briefly, total cell extracts were prepared by direct lysis of cells with buffer containing 50 mM Tris-HCl (pH 7.4), 1 mM EDTA, 250 mM NaCl, 1% Triton X-100, 0.5 mM dithiothreitol (DTT) and 1 mM phenylmethylsulfonyl (PMSF). Protein concentrations were measured using a detergent compatible kit (BioRad, Hercules, Calif.). Proteins were resolved by SDS-PAGE and analyzed by Western blotting as described (Xia et al., 2001, Analysis of the Expression Pattern of Ebp1, an ErbB-3-Binding Protein, Biochem. Biophys. Res. Commun., 289:240-244). The AR antibody was from Santa Cruz Biotechnology (Santa Cruz, Calif.), the Ebp1 antibody from Upstate (Lake Placid, N.Y.), the polyclonal antibody to actin from Sigma (St. Louis, Mo.), and the POV-1 antibody was a gift of Dr. Rodrigo Chugai, National Cancer Institute. The results of the microarray analysis were validated using real-time quantitative reverse-transcription PCR, Western blot, and ELISA methods. […] The expression of POV-1 mRNA and protein were each decreased about two-fold. PSA secretion in the conditioned media of ebp1 and vector control cells was assessed by ELISA. […] Finally, […]-2 mRNA expression was decreased approximately 40%.

[2] = tested on: androgen-responsive genes in LNCaP cells; assay: Microarray gene expression profiling of LNCaP cells stably transfected with ebp1; conditions: ebp1-overexpressing LNCaP cells vs controls
Experimental: Microarray Analysis: First and second strand cDNA were synthesized from 5-15 μg of total RNA at Genome Explorations (Nashville, Tenn.) using the SuperScript Double-Stranded cDNA Synthesis Kit (Gibco Life Technologies, Gaithersburg, Md.) and an oligo-dT24-T7 (5′-GGCCAGTGAATTGTAATACGACTCACTATAGGGAGGCGG-3′) (SEQ ID NO: 3) primer according to the manufacturer's instructions. cRNA was synthesized labeled with biotinylated UTP and CTP by in vitro transcription using the T7 promoter-coupled, double-stranded cDNA as template and the T7 RNA Transcript Labeling Kit (ENZO Diagnostics Inc., Farmingdale, N.Y.). The fragmented cRNA was hybridized for U133A oligonucleotide arrays (Affymetrix, Santa Clara, Calif.) containing ˜33,000 full-length annotated genes, together with additional probe sets designed to represent EST sequences. The arrays were then stained with phycoerythrein-conjugated streptavidin (Molecular Probes, Eugene, Oreg.), and the fluorescence intensities were determined using a laser confocal scanner (Hewlett-Packard, Palo Alto, Calif.). The scanned images were analyzed using Microarray software (Affymetrix). Sample loading and variations in staining were standardized by scaling the average of the fluorescent intensities of all genes on an array to constant target intensity for all arrays used. The signal intensity for each gene was calculated as the average intensity difference, represented by [E(PM−MM)/(number of probe pairs)], where PM and MM denote perfect-match and mismatch probes. Data analysis was conducted using Microarray Suite 5.0 (Affymetrix) following user guidelines. Only genes with a minimum expression level of 500 were included in this analysis. […] AR-regulated genes include the Androgen Receptor (AR), PSA (kallikrein 3), Kallikrein 2, POV-1, TMPRSS2, and prostate-derived factor.
Ectopic expression of Ebp1 downregulates androgen-regulated genes: Gene expression profiling of LNCaP cells stably transfected with ebp1 was used to determine the range of androgen-dependent genes affected by Ebp1 overexpression. These cells overexpress Ebp1 protein between two- and three-fold (Zhang et al., 2002, Repression of Androgen Receptor Mediated Transcription by the ErbB-3 Binding Protein Ebp1, Oncogene, 21: 5609-5618). Changes in gene expression were measured using microarray analysis of 33,000 transcripts on the Affymetrix U133A chip. To compile a list of differentially regulated genes, only those genes that were activated or repressed at least 3-fold (p <0.05, 500 minimum expression units) were included. […] Forty-one genes were induced and 126 were repressed. Seventy-two of these genes have HUGO approved names. […] These include the Androgen Receptor (3.7 fold decrease), PSA (3.7 fold decrease) as previously reported (Zhang et al., 2002, Repression of Androgen Receptor Mediated Transcription by the ErbB-3 Binding Protein Ebp1, Oncogene, 21: 5609-5618), Kallikrein 2 (3.2 fold decrease), POV-1 (5.0 fold decrease), TMPRSS2 (3.2 fold decrease), and prostate-derived factor (3.2 fold decrease). The Kallikrein 2 gene is regulated by AR, predominantly expressed in prostate tissue, secreted by LNCaP cells, and 78% homologous to PSA. […] The TMPRSS2 gene is androgen-regulated and also highly expressed in prostate and prostate cancer (Afar et al., 2001, Catalytic Cleavage of the Androgen-Regulated TMPRSS2 Protease Results in its Secretion by Prostate and Prostate Cancer Epithelia, Cancer Res., 61:1686-1692).

B1: Ebp1: ErbB3 binding protein (SEQ ID NO: 2), tested by stable ectopic expression (ebp1 transfection) in LNCaP cells (protein)
chain: MSGEDEQQEQTIAEDLVVTKYKMGGDIANRVLRSLVEASSSGVSVLSLCEKGDAMIMEETGKIFKKEKEMKKGIAFPTSISVNNCVCHFSPLKSDQDYILKEGDLVKIDLGVHVDGFIANVAHTFVVDVAQGTQVTGRKADVIKAAHLCAEAALRLVKPGNQNTQVTEAWNKVAHSFNCTPIEGMLSHQLKQHVIDGEKTIIQNPTDQQKKDHEKAEFEVHEVYAVDVLVSSGEGKAKDAGQRTTIYKRDPSKQYGLKMKTSRAFFSEVERRFDAMPFTLRAFEDEKKARMGVVECAKHELLQPFNVLYEKEGEFVAQFKFTVLLMPNGPMRITSGPFEPDLYKSEMEVQDAELKALLQSSASRKTQKKKKKKASKTAENPTSGETLEENEAGD
modifications: Homo Sapien
- growth inhibition by the withdrawal of androgens (LNCaP cells): 60%
- AR protein decrease ([1]; Western blot, LNCaP ebp1 transfectants): more than five-fold
- POV-1 protein decrease ([1]; ebp1 transfectants): about two-fold
- Androgen Receptor expression, fold decrease [2]: 3.7 fold decrease
- Kallikrein 2 expression, fold decrease [2]: 3.2 fold decrease
- POV-1 expression, fold decrease [2]: 5.0 fold decrease
- PSA expression, fold decrease [2]: 3.7 fold decrease
- TMPRSS2 expression, fold decrease [2]: 3.2 fold decrease
- prostate-derived factor expression, fold decrease [2]: 3.2 fold decrease

Source: patent US7718626B2, “ErbB3 binding protein compositions and methods of use” (University of Maryland, Baltimore, priority 2005, dated 2010)
